Assay results as given in US11066482B2, “Specific plasmin inactivation by anticatalytic antibody” (priority 2017, dated 2021).

How the values were obtained:
chymotrypsin = test: Specificity of Pi binding (ELISA); details: plate coated 10 ug/ml
Procedure: (§1) FIGS. 3A-3D show binding and inhibitory specificity of Pi. […] The effect of various concentrations of Pi (0-2000 nM) on clots formed with human, baboon or African green monkey plasmas. Clot lysis was measured in microtiter plates after addition of urokinase as described in Methods.
(§2) Specificity of Pi binding. The binding of the Pi to different serine proteases was assessed by ELISA in 96-well plates coated with human plasminogen, mouse plasminogen, tPA, trypsin or chymotrypsin (10 ug/ml) and blocked with 1% BSA. After incubation and washing, Pi or control monoclonal antibody supernatants (anti-digoxin) were added to the wells for 1 h in triplicate. Then goat anti mouse antibody conjugated with HRP (1:5000, Sc-2005, Santa Cruz) was then added. The plate was washed after incubation for 1 h. TMB was added to the wells and absorbance at 370 nm was recorded.

human tPA = human tPA (Homo sapiens, UniProt P00750); test: Specificity of Pi binding (ELISA); details: plate coated 10 ug/ml
Procedure: as §1, §2

mouse plasminogen = mouse plasminogen (Mus musculus, UniProt P20918); test: Specificity of Pi binding (ELISA); details: plate coated 10 ug/ml
Procedure: as §1, §2

trypsin = test: Specificity of Pi binding (ELISA); details: plate coated 10 ug/ml
Procedure: as §1, §2

[1] = target: T1, plasmin activity in bovine plasma (Bos taurus, UniProt P06868); test: Plasmin activity in plasma after urokinase, S2251; type: biochemical; details: Pi 1 uM
T1 construct: from tissue; host or cells: bovine plasma
Procedure: as §1
(§3) Specificity of plasmin inhibition. The effect of the Pi on different animal plasmins was examined after addition of the plasminogen activator urokinase. Various animal plasmas (5 ul) were mixed in microtiter plates in the presence of Pi (1 uM, 10 ul) or buffer, S2251 (10 ul, 0.5 mM final), urokinase (100 or 200 U) in a total volume of 100 ul with PBS. The plates were incubated at 37 deg. C. and the rate of plasmin generation was monitored by substrate cleavage at 405 nm for 1 hr.

[2] = system: plasmin activity in cat plasma; test: Plasmin activity in plasma after urokinase, S2251; type: biochemical; details: Pi 1 uM
Procedure: as §1, §3

[3] = target: T2, plasmin activity in dog plasma (Canis lupus familiaris, UniProt P80009); test: Plasmin activity in plasma after urokinase, S2251; type: biochemical; details: Pi 1 uM
T2 construct: from tissue; host or cells: dog plasma
Procedure: as §1, §3

[4] = system: plasmin activity in gerbil plasma; test: Plasmin activity in plasma after urokinase, S2251; type: biochemical; details: Pi 1 uM
Procedure: as §1, §3

[5] = system: plasmin activity in guinea pig plasma; test: Plasmin activity in plasma after urokinase, S2251; type: biochemical; details: Pi 1 uM
Procedure: as §1, §3

[6] = system: plasmin activity in hamster plasma; test: Plasmin activity in plasma after urokinase, S2251; type: biochemical; details: Pi 1 uM
Procedure: as §1, §3

[7] = target: T3, plasmin activity in pig plasma (Sus scrofa, UniProt P06867); test: Plasmin activity in plasma after urokinase, S2251; type: biochemical; details: Pi 1 uM
T3 construct: from tissue; host or cells: pig plasma
Procedure: as §1, §3

[8] = system: plasmin activity in rabbit plasma; test: Plasmin activity in plasma after urokinase, S2251; type: biochemical; details: Pi 1 uM
Procedure: as §1, §3

[9] = target: T4, plasmin activity in rat plasma (Rattus norvegicus, UniProt Q01177); test: Plasmin activity in plasma after urokinase, S2251; type: biochemical; details: Pi 1 uM
T4 construct: from tissue; host or cells: rat plasma
Procedure: as §1, §3

plasmin in human plasma = target: T5, plasmin in human plasma (Homo sapiens, UniProt P00747); test: Plasmin activity in plasma after urokinase, S2251; type: biochemical; details: Pi 1 uM
T5 construct: from tissue; host or cells: human plasma
Procedure: as §1, §3

[10] = system: human clot lysis initiated by r-tPA; test: Clot lysis assay of Pi, MAb 340 and control MAb with r-tPA; type: biochemical; details: human plasma, MAb 20 ug, r-tPA 2 nm
Procedure: as §1
The comparative effects of Pi, MAb 340 and a control MAb (anti-digoxin) were examined in a clot lysis assay in microtiter plates. Human plasma (50 ul) was mixed with the MAbs (20 ug) in duplicate and then clotted with CaCl2 and thrombin, with or without recombinant (r)-tPA (2 nm). Clot dissolution at 37 deg. C. was monitored at 405 nm for 120 min. The time required to fully dissolve the clots during the 120 min. observation period was recorded.

[11] = system: plasmin-mediated fibrinolysis of human fibrin clots; test: Fibrinolysis of 125I-fibrin human plasma clots with tPA, EACA vs Pi; type: biochemical; details: tPA 5 nM, 2.5 h; Pi 62.5 to 1000 nM, EACA 0.125 mM to 2 mM
fibrinolytic bleeding = test: Fibrinolytic bleeding assay in vivo (humanized tail bleeding model); parameters: species or system mice; details: Pi 100 nmole/kg intravenously, mice given human plasminogen and plasminogen activator
Procedure: Anesthetized mice were treated in a randomized, blinded fashion with saline (Control), Pi (100 nmole/kg) or EACA (510 micromole/kg) intravenously. Human plasminogen (100 nmole/kg) and plasminogen activator (80,000 IU/kg) were given over 60 min. Tail bleeding was initiated 40 min. after the infusion. Tails were pre-warmed for 5 mins in 3 mL of 37° C. saline and bleeding was monitored as described.36,37 N=5-6, Means±SE are shown. *p<0.05, **p<0.01; ns, not significant. Kruskal Wallis one way ANOVA, Dunn's corrections.
Fibrinolytic bleeding assays in vivo. Anesthetized mice were treated in a randomized, blinded fashion with saline (Control), Pi (100 nmole/kg) or EACA (510 micromole/kg). Human plasminogen (100 nmole/kg) and plasminogen activator (80,000 IU/kg) were given over 60 min. Tail bleeding started 40 min. after the infusion. Tails were pre-warmed for 5 mins in 3 mL of 37° C. saline as described.(27, 28).
Suppression of fibrinolytic bleeding in vivo. The potential utility of the Pi for suppression of fibrinolytic bleeding was examined in vivo in randomized, blinded studies of surgical arterial and venous hemorrhage.

T3 sequence (P06867 97-579 limits assumed): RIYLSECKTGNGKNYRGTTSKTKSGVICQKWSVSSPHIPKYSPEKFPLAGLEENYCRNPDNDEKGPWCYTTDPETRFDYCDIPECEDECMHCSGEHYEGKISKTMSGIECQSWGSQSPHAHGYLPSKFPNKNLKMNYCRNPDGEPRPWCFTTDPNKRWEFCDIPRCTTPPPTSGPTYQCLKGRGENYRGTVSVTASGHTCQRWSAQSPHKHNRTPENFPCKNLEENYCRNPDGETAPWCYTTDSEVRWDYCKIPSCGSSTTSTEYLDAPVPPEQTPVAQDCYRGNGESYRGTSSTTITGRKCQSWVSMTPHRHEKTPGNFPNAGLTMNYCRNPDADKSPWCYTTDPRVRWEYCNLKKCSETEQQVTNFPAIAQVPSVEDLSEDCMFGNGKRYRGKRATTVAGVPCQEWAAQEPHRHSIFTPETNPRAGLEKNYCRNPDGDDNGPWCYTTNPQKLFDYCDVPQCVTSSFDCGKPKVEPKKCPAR
T3 sequence (P06867 580-809 limits assumed): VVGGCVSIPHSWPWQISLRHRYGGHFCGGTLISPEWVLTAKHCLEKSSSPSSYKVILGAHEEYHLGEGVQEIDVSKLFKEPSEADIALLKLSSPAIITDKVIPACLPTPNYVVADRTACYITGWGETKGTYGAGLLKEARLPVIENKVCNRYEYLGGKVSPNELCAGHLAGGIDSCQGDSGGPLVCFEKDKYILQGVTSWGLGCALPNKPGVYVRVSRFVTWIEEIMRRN
human tPA, sequence (P00750 36-562): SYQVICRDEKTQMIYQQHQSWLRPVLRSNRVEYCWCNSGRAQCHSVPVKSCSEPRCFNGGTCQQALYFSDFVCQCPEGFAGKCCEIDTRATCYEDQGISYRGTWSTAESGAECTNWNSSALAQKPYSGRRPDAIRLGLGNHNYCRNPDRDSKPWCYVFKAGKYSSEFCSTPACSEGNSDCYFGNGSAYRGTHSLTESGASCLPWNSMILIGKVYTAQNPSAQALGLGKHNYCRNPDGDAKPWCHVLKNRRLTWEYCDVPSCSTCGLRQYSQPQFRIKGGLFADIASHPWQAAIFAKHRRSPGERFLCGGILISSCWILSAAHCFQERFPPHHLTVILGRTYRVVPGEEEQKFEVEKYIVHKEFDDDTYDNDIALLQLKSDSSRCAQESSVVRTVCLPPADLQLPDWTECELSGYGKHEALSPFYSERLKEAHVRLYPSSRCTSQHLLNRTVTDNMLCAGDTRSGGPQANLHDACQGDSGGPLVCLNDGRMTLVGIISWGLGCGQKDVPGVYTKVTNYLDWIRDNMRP
T4 sequence (Q01177 97-581 limits assumed): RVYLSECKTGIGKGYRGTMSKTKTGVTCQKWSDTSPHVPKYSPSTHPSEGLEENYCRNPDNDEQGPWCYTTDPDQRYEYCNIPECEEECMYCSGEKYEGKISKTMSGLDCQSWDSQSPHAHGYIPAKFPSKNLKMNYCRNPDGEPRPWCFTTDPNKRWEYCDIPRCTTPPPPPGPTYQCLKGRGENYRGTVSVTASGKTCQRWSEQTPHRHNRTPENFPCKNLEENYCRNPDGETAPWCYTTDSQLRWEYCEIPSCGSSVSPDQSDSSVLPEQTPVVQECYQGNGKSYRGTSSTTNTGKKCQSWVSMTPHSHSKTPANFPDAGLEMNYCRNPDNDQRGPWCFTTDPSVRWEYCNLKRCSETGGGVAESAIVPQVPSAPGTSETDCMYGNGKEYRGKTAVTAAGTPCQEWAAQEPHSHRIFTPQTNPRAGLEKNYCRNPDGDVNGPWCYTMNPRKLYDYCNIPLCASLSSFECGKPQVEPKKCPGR
T4 sequence (Q01177 582-812 limits assumed): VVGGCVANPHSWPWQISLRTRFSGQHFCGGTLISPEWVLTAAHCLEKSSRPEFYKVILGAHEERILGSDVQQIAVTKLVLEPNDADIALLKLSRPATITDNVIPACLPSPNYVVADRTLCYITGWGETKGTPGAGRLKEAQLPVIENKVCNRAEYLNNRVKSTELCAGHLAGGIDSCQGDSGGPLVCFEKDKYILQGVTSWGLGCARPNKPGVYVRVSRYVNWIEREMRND
T1 sequence (P06868 104-583 limits assumed): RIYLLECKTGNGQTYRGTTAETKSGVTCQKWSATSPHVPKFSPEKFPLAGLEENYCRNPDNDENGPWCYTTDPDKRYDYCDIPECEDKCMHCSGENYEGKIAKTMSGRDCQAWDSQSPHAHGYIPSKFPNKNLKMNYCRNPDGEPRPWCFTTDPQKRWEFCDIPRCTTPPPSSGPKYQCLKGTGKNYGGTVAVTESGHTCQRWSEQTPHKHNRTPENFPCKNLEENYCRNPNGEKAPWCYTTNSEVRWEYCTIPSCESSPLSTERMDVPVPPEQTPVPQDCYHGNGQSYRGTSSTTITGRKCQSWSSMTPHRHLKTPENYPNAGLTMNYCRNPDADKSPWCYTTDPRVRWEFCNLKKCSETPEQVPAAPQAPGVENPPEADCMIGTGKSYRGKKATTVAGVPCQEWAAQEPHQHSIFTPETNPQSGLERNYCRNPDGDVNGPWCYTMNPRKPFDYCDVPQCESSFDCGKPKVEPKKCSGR
T1 sequence (P06868 584-812 limits assumed): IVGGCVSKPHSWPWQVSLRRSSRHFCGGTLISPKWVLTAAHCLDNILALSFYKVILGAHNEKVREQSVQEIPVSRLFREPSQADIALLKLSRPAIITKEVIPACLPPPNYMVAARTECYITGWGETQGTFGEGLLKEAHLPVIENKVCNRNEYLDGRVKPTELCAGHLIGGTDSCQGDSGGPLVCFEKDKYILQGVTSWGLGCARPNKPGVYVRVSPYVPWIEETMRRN
T2 sequence (P80009 with tags, fused parts or gaps): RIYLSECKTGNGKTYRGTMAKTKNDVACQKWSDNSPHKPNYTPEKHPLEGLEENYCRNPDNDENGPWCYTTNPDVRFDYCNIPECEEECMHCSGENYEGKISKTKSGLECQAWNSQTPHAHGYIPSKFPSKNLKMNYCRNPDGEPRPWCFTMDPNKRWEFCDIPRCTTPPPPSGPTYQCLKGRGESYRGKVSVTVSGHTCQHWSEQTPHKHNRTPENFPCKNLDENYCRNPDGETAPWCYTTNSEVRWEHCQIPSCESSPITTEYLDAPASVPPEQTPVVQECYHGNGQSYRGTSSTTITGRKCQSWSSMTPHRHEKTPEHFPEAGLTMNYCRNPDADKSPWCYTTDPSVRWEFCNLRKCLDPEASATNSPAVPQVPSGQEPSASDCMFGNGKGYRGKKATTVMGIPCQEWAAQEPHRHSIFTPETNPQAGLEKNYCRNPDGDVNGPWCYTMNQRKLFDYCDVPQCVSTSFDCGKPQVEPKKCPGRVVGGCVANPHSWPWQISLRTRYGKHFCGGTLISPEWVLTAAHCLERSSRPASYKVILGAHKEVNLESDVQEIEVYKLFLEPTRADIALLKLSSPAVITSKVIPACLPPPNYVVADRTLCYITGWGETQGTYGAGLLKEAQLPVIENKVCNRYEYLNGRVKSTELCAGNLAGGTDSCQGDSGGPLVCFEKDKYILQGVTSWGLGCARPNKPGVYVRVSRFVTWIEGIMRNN
mouse plasminogen, sequence (P20918 20-812 limits assumed): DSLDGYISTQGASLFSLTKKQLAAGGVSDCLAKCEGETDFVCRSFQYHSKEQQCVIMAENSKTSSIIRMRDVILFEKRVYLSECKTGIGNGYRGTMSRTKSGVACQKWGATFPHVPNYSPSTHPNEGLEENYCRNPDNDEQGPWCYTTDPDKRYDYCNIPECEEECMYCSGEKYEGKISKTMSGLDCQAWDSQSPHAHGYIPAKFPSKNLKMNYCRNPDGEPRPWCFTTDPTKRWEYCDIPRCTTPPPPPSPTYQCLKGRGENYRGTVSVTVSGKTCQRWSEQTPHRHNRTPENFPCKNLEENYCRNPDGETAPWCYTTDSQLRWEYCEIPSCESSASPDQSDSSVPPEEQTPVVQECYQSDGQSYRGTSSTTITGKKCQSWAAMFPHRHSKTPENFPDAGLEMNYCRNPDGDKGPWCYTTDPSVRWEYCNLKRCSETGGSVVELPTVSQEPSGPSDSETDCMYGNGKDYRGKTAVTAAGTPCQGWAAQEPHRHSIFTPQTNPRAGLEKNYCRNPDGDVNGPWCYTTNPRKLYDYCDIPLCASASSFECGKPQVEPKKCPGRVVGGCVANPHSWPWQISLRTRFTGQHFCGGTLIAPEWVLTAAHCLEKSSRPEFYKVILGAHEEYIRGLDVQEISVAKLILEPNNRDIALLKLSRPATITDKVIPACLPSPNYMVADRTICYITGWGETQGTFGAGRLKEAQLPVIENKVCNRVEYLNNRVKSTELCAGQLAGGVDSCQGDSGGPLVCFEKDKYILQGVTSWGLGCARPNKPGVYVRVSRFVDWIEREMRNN
T5 sequence (P00747 97-580 limits assumed): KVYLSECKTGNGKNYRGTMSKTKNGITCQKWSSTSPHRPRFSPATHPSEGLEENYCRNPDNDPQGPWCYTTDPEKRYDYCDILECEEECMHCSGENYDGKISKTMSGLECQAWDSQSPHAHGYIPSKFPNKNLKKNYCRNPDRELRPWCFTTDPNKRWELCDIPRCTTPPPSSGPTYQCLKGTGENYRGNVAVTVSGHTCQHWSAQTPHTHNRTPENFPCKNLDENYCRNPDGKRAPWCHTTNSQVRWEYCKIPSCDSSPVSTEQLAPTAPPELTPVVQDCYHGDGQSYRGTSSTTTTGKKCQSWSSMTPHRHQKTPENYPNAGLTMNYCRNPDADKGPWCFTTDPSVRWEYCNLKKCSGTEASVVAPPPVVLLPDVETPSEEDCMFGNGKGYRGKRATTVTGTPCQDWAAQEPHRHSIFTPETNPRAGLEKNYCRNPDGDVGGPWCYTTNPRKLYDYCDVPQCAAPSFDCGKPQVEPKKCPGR
T5 sequence (P00747 581-810 limits assumed): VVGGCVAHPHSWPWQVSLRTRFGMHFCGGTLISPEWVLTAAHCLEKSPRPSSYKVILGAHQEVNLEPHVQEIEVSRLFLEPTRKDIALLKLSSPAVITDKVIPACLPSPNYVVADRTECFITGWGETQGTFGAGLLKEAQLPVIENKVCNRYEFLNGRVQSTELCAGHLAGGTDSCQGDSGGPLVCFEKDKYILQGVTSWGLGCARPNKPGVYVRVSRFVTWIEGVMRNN

B1: Pi: mouse monoclonal antibody plasmin inhibitor binding plasmin protease domain loops 4 and 5; LC SEQ ID NO:1, HC SEQ ID NO:4 (antibody)
heavy: EVKLLESGGGLVQPGGSLKLSCAASGFDFSRYWMSWVRQAPGKGLEWIGEINPDSSTINYTPSLKDKFIISRDNAKNSLYLQMSKVRSEDTALYYCASYCGYSYDALDCWGQGTSVTVSSAKTTPPSVYPLAPGSAAQTNSMVTLGCLVKGYFPEPVTVTWNSGSLSSGVHTFPAVLQSDLYTLSSSVTVPSSTWPSETVTCNVAHPASSTKVDKKIVPRDCGCKPCICTVPEVSSVFIFPPKPKDVLTITLTPKVTCVVVDISKDDPEVQFSWFVDDVEVHTAQTQPREEQFNSTFRSVSELPIMHQDWLNGKEFKCRVNSVAFPAPIEKTISKTKGRPKAPQVYTIPPPKEQMAKDKVSLTCMITDFFPEDITVEWQWNGQPAENYKNTQPIMDTDGSYFVYGKLNVQKSNWEAGNTFTCSVLHEGLHNHHTEKSLSHSPGK
light: DIQMTQSPSSLSASLGGKVSITCKASQDINKYISWYQHKPGKGPRLLIHYTSTLQPGIPSRFSGSGSGRDYSFSISNLEPEDIATYYCLQYDNLYTFGGGTKLEIKRADAAPTVSIFPPSSEQLTSGGASVVCFLNNFYPKDINVKWKIDGSERQNGVLNSWTDQDSKDSTYSMSSTLTLTKDEYERHNSYTCEATHKTSTSPIVKSFNWNEC
For B1, the “specific binding vs control anti-digoxin antibody” value (chymotrypsin) was “no specific binding”, the “specific binding vs control anti-digoxin antibody” value (human tPA) was “no specific binding” and the “specific binding vs control anti-digoxin antibody” value (mouse plasminogen) was “no specific binding”. For the same molecule, the “specific binding vs control anti-digoxin antibody” value (trypsin) was “no specific binding”, the “effect on plasmin activity generated by urokinase” value (“effect … by urokinase” below) [1] was “did not inhibit plasmin activity” and the “effect … by urokinase” value [2] was “did not inhibit plasmin activity”. The “effect … by urokinase” value [3] was “did not inhibit plasmin activity”, the “effect … by urokinase” value [4] was “did not inhibit plasmin activity” and the “effect … by urokinase” value [5] was “did not inhibit plasmin activity”. For the same molecule, the “effect … by urokinase” value [6] was “did not inhibit plasmin activity”, the “effect … by urokinase” value [7] was “did not inhibit plasmin activity” and the “effect … by urokinase” value [8] was “did not inhibit plasmin activity”. For the same molecule, the “effect … by urokinase” value [9] was “did not inhibit plasmin activity”, the “effect … by urokinase” value (plasmin in human plasma) was “suppressed plasmin” and the “clot dissolution during 120 min” value [10] was “did not significantly dissolve”. For the same molecule, the “effect on fibrinolysis of human fibrin clots” value [11] was “significantly suppressed”, the “suppression of bleeding time vs controls” value (fibrinolytic bleeding) was > 80% and the “suppression of blood loss vs controls” value (fibrinolytic bleeding) was > 85%.
